Assay results as given in the supplement of paper PMC7877785.
± gives the uncertainty stated by the source.

Test: self-splicing fitness, log relative to wild type (ln ratio); higher = more splicing; Tetrahymena group I intron in knt gene, E. coli kanamycin selection, DiMSum; sequences stand for … in CUCUCU…GGAGGGAAAAGUUAUCAGGCAUGCACCUGGUAGCUAGUCUUUAAACCAAUAGAUUGCAUCGGUUUAAAAGGCAAGACCGUCAAAUUGCGGGAAAGGGGUCAACAGCCGUUCAGUACCAAGUCUCAGGGGAAACUUUGAGAUGGCCUUGCAAAGGGUAUGGUAAUAAGCUGACGGACAUGGUCCUAACCACGCAGCCAAGUCCUAAGUCAACAGAUCUUCUGUUGAUAUGGAUGCAGUUCACAGACUAAAUGUCGGUCGGGGAAGAUGUAUUCUUCUCAUAAGAUAUAGUCGGACCUCUCCUUAAUGGGAGCUAGCGGAUGAAGUGAUGCAACACUGGAGCCGCUGGGAACUAAUUUGUAUGCGAAAGUAUAUUGAUUAGUUUUGGAGUACUCGUGGUCG
How it was run: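 Colonies from six replicate transformations of E. coli BL21(DE3) were pooled and amplicon-sequenced on an Illumina HiSeq 2500. The library placed an intron with all eight P1ex-region nucleotides randomised inside the knt kanamycin-resistance gene on pET-22b(+), and cells grew overnight at 37°C or 30°C on LB agar with or without 25 μg/mL kanamycin (plus 100 μg/mL carbenicillin, 50 μM IPTG, 0.2% rhamnose). Fitness is the DiMSum error-weighted combination of wild-type-normalised replicate fold changes, kanamycin versus none.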

Sequence | self-splicing fitness (ln) (30 °C) | self-splicing fitness (ln) (37 °C)
GAGGAGCAAUAUUACGGUGU | -3.56 ± 0.27 | -1.59 ± 0.21
AGGAAGCAAUAUUACGGUCG | -0.601 ± 0.1 | 0.213 ± 0.14
CCCGAGCAAUAUUACGAGCG | -3.77 ± 0.29 | -2.88 ± 0.27
UCACAGCAAUAUUACGUCUC | -3.42 ± 0.25 | -1.77 ± 0.2
CUAGAGCAAUAUUACGGGCG | 0.0237 ± 0.11 | 0.638 ± 0.14
GAGCAGCAAUAUUACGACAG | -3.25 ± 0.21 | -2.6 ± 0.27
CUUGAGCAAUAUUACGUUUG | -3.1 ± 0.16 | -2.26 ± 0.18
UGAUAGCAAUAUUACGCUGU | -2.61 ± 0.27 | -3.08 ± 0.38
GACGAGCAAUAUUACGAGGA | -2.28 ± 0.28 | -2.66 ± 0.36
CUGAAGCAAUAUUACGUAAG | -0.797 ± 0.08 | 0.0174 ± 0.086
UCCUAGCAAUAUUACGUGCU | -3.5 ± 0.17 | -1.8 ± 0.2
GAAAAGCAAUAUUACGUCGC | -1.38 ± 0.08 | -0.835 ± 0.086
GUCUAGCAAUAUUACGCUAC | -2.41 ± 0.47 | -2.57 ± 0.33
ACAAAGCAAUAUUACGGAUA | -2.14 ± 0.2 | -1.68 ± 0.17
CUUCAGCAAUAUUACGUGCC | -3.44 ± 0.31 | 
AACCAGCAAUAUUACGUCUG | -3.9 ± 0.17 | -2.54 ± 0.16
GGUGAGCAAUAUUACGACCU | -2.12 ± 0.26 | -2.52 ± 0.49
GGAGAGCAAUAUUACGCGUG | -3.84 ± 0.33 | -2.53 ± 0.18
CGAGAGCAAUAUUACGGGUU |  | -2.27 ± 0.5
CUUCAGCAAUAUUACGUGGU | -3.25 ± 0.21 | -2.22 ± 0.24
AUACAGCAAUAUUACGGUUU | -0.703 ± 0.048 | 0.226 ± 0.059
GAGAAGCAAUAUUACGCAAU | -3.12 ± 0.17 | -1.52 ± 0.14
CGAUAGCAAUAUUACGUGAC | -2.87 ± 0.18 | -2.36 ± 0.23
UCGGAGCAAUAUUACGCAGA |  | -2.13 ± 0.23
UCGAAGCAAUAUUACGGCUU | -3.32 ± 0.27 | -2.85 ± 0.22

Sequence | self-splicing fitness (ln) (30 °C) | self-splicing fitness (ln) (37 °C)
AGACAGCAAUAUUACGGGGA | -3.11 ± 0.17 | -1.82 ± 0.12
CCAGAGCAAUAUUACGCUAG | -3.84 ± 0.29 | -2.38 ± 0.28
GUCGAGCAAUAUUACGAUGA | -1.6 ± 0.15 | -0.827 ± 0.14
AGAGAGCAAUAUUACGUCUG | -4.03 ± 0.33 | -2.38 ± 0.31
UAAGAGCAAUAUUACGACAA | -3.57 ± 0.43 | -1.79 ± 0.29
GUCGAGCAAUAUUACGAGGG |  | -1.04 ± 0.21
AGUGAGCAAUAUUACGUCUU | -1.07 ± 0.082 | -1.31 ± 0.1
GCUGAGCAAUAUUACGAGGA | -2.31 ± 0.16 | -2.48 ± 0.18
CACUAGCAAUAUUACGGGUC | -2.36 ± 0.14 | -2.27 ± 0.2
ACGAAGCAAUAUUACGAACU | -0.572 ± 0.084 | -0.697 ± 0.093
UAUCAGCAAUAUUACGUUUC | -2.67 ± 0.21 | -1.73 ± 0.22
AUACAGCAAUAUUACGCUCC | -1.47 ± 0.16 | -0.769 ± 0.21
GGGUAGCAAUAUUACGGCUG | -0.592 ± 0.11 | -1.05 ± 0.14
AACGAGCAAUAUUACGUUCA | -2.32 ± 0.17 | -1.87 ± 0.23
AUGGAGCAAUAUUACGCGAU | -2.66 ± 0.49 | -1.82 ± 0.4
CGCCAGCAAUAUUACGUUGG | -2.64 ± 0.14 | -2.68 ± 0.24
CAAUAGCAAUAUUACGGUCC | -3.21 ± 0.38 | -2.34 ± 0.39
AAUCAGCAAUAUUACGCAAG | -0.971 ± 0.068 | -0.72 ± 0.087
UCUCAGCAAUAUUACGGACG | -1.84 ± 0.14 | -0.508 ± 0.13
AUCGAGCAAUAUUACGACCU | -0.95 ± 0.092 | -0.344 ± 0.15
CAUGAGCAAUAUUACGCCUA | -2.28 ± 0.24 | -1.75 ± 0.26
CAUCAGCAAUAUUACGGGAA | -2.53 ± 0.21 | -1.68 ± 0.17
CCGCAGCAAUAUUACGAGGG | -1.99 ± 0.091 | -2.71 ± 0.19
CCUCAGCAAUAUUACGAUGG | -4.2 ± 0.19 | -2.69 ± 0.16
GGGGAGCAAUAUUACGAAGG | -2.62 ± 0.41 | -1.44 ± 0.39

Sequence | self-splicing fitness (ln) (30 °C) | self-splicing fitness (ln) (37 °C)
UUUCAGCAAUAUUACGCGUU | -2.13 ± 0.21 | -0.852 ± 0.17
GAUCAGCAAUAUUACGUAUU | -2.69 ± 0.12 | -1.38 ± 0.12
AAGUAGCAAUAUUACGUACU | -0.863 ± 0.19 | -0.429 ± 0.19
CUGGAGCAAUAUUACGUAUG | -1.78 ± 0.12 | -0.437 ± 0.14
ACUAAGCAAUAUUACGGGAG | -2.5 ± 0.11 | -1.88 ± 0.14
UGGCAGCAAUAUUACGCUCA | -0.353 ± 0.13 | 0.629 ± 0.18
AGUGAGCAAUAUUACGGACU | -1.28 ± 0.12 | -0.761 ± 0.13
AUACAGCAAUAUUACGAACG | -0.79 ± 0.12 | -1.44 ± 0.17
UUAGAGCAAUAUUACGAAGA | -1.27 ± 0.13 | -0.451 ± 0.23
CCGAAGCAAUAUUACGACCG | -0.936 ± 0.13 | -0.0137 ± 0.17
AAUUAGCAAUAUUACGGUAC | -2.42 ± 0.16 | -1.22 ± 0.2
GGAUAGCAAUAUUACGAAUA |  | 0.53 ± 0.21
AGAUAGCAAUAUUACGUUUA | -2.12 ± 0.13 | -1.43 ± 0.13
UUGGAGCAAUAUUACGAUGC | -1.76 ± 0.28 | 
UUAUAGCAAUAUUACGACUA | -0.12 ± 0.23 | -0.299 ± 0.2
AAGUAGCAAUAUUACGCGGU | -2.47 ± 0.31 | -2.59 ± 0.39
CGAAAGCAAUAUUACGUGUA | -3 ± 0.13 | -2.35 ± 0.13
GUUUAGCAAUAUUACGUAUG | -2.29 ± 0.21 | -0.712 ± 0.17
UCCCAGCAAUAUUACGGGUG | -1.4 ± 0.06 | -0.507 ± 0.075
UUCCAGCAAUAUUACGAUCG | -2.6 ± 0.12 | -1.04 ± 0.14
CUAAAGCAAUAUUACGAUCA | -2.12 ± 0.18 | -0.711 ± 0.22
UACAAGCAAUAUUACGGGAG | -3.1 ± 0.12 | -1.49 ± 0.094
UCACAGCAAUAUUACGCCGA | -0.333 ± 0.1 | 0.184 ± 0.14
AUUUAGCAAUAUUACGCGCG | -1.28 ± 0.2 | -0.257 ± 0.22
CGCUAGCAAUAUUACGAUUA | -3.34 ± 0.35 | -2.73 ± 0.31

Sequence | self-splicing fitness (ln) (30 °C) | self-splicing fitness (ln) (37 °C)
ACCUAGCAAUAUUACGUUCC | -1.5 ± 0.086 | -0.914 ± 0.12
GUUAAGCAAUAUUACGUCGU | -0.93 ± 0.078 | -0.441 ± 0.081
AUCAAGCAAUAUUACGAUUA | -1.28 ± 0.11 | -0.622 ± 0.13
GCAAAGCAAUAUUACGACUC | -0.773 ± 0.13 | 0.0939 ± 0.11
CACGAGCAAUAUUACGAUUG | -2.19 ± 0.11 | -1.6 ± 0.13
ACCAAGCAAUAUUACGGGCA | -0.376 ± 0.06 | -0.0824 ± 0.072
CACAAGCAAUAUUACGCACU | -2.4 ± 0.13 | -1.33 ± 0.11
GCACAGCAAUAUUACGUCAA | -0.993 ± 0.079 | -0.565 ± 0.082
GAACAGCAAUAUUACGAUGA | -0.145 ± 0.077 | -0.155 ± 0.081
CUUGAGCAAUAUUACGUUAA | -2.47 ± 0.16 | -2.6 ± 0.22
UCUGAGCAAUAUUACGUGGC | -3.1 ± 0.25 | -1.94 ± 0.23
CGCAAGCAAUAUUACGUGAU | -4.09 ± 0.16 | -1.63 ± 0.11
UCGGAGCAAUAUUACGGGGG | -2.73 ± 0.22 | -2.32 ± 0.3
GUUUAGCAAUAUUACGCGCG | -0.802 ± 0.1 | -0.0312 ± 0.18
GUAUAGCAAUAUUACGAGGC | -2.1 ± 0.33 | -2.18 ± 0.47
UGAUAGCAAUAUUACGGAGC | -3.26 ± 0.24 | -3.25 ± 0.47
UUCCAGCAAUAUUACGGACG | -0.4 ± 0.048 | 0.421 ± 0.077
GCGUAGCAAUAUUACGGCUA | -1.92 ± 0.26 | -0.79 ± 0.2
UACAAGCAAUAUUACGUCGC | -2.94 ± 0.11 | -2.51 ± 0.14
GUGAAGCAAUAUUACGUAAC | -1.99 ± 0.26 | -1.23 ± 0.31
UAACAGCAAUAUUACGACCG | -0.596 ± 0.09 | -0.323 ± 0.11
UAGUAGCAAUAUUACGUACC | -2.29 ± 0.37 | -1.21 ± 0.27
